Substrate: O=[N+]([O-])c1ccc(OP(=O)(O)O)cc1
Assay: purified protein
Details: pH 8.0; 37.0 °C

B1: Rv1364c (Mycobacterium tuberculosis H37Rv) (protein)
chain: MAAEMDWDKTVGAAEDVRRIFEHIPAILVGLEGPDHRFVAVNAAYRGFSPLLDTVGQPAREVYPELEGQQIYEMLDRVYQTGEPQSGSEWRLQTDYDGSGVEERYFDFVVTPRRRADGSIEGVQLIVDDVTSRVRARQAAEARVEELSERYRNVRDSATVMQQALLAASVPVVPGADIAAEYLVAAEDTAAGGDWFDALALGDRLVLVVGDVVGHGVEAAAVMSQLRTALRMQISAGYTVVEALEAVDRFHKQVPGSKSATMCVGSLDFTSGEFQYCTAGHPPPLLVTADASARYVEPTGAGPLGSGTGFPVRSEVLNIGDAILFYTDGLIERPGRPLEASTAEFADLAASIASGSGGFVLDAPARPIDRLCSDTLELLLRSTGYNDDVTLLAMQRRAPTPPLHITLDATINAARTVRAQLREWLAEIGADHSDIADIVHAISEFVENAVEHGYATDVSKGIVVAAALAGDGNVRASVIDRGQWKDHRDGARGRGRGLAMAEALVSEARIMHGAGGTTATLTHRLSRPARFVTDTMVRRAAFQQTIDSEFVSLVESGRIVVRGDVDSTTAATLDRQIAVESRSGIAPVTIDLSAVTHLGSAGVGALAAACDRARKQGTECVLVAPPGSPAHHVLSLVQLPVVGADTEDIFAQE
Protein B1 has a Km of 3.61 ± 0.58 mM and a Vmax of 0.09 µmol/min/mg.

— article PMC3662962
